Data on four molecules can be found in publication PMC6230950.

In assay [1] the target is commercial purified human IgG1 (human). The experiment in a line: SPR; Biacore X100; protein A on a CM5 chip, IgG or TB-PIGS captured; human CD32a as analyte, 4000 nM to 125 nM in 2-fold dilutions; HBS-EP+; 40 uL/min, contact 90 s; steady-state affinity analysis. In general terms: Surface plasmon resonance follows binding to a sensor surface in real time, without labels.
The target is the same in assay [2]. The experiment in a line: SPR; Biacore X100, HBS-EP+; TB-PIGS captured on protein A coupled to a CM5 chip; FcγR as analyte, 40 μL/min; affinity of one FcγR for a single arm.
The target of assay [3] is commercial purified murine IgG2a (mouse). The experiment in a line: SPR; Biacore X100; protein A amine-coupled on a CM5 chip, IgG or TB-PIGS captured on it; CD64 (human or mouse) as analyte, 240 nM down to 1.875 nM in 1:2 dilutions; HBS-EP+; 40 uL/min, contact 135 s, dissociation 600 s; 1:1 model, but for human TB-PIGS from wild-type plants the 'Heterogeneous antibody with aglycosylation' model (two sets of values).

A word on the Kd: it is a measure of binding affinity in units of concentration. In general, koff refers to the rate constant with which the complex falls apart. For orientation: kon means a measure of how fast the partners come together. The low end stands for slow association, the high end for fast association.

Molecule “human CD32a (FcγRIIa) (from UniProt P12318 34-217) (receptor)” came in with a Kd in assay [1] of 0.88 µM. This counts as sub-micromolar.

“human CD16a (FcγRIIIa) (from UniProt P08637 17-208) (receptor)” registered a Kd in assay [2] of 0.673 µM.

For the molecule “human CD64 (FcγRI) (from UniProt P12314 16-292) (receptor)”, the Kd in assay [2] is 0.00027 µM. This Kd lies about 2500-fold lower than the previous one.

B1: mouse CD64 (FcγRI) (receptor)
chain: EVVNATKAVITLQPPWVSIFQKENVTLWCEGPHLPGDSSTQWFINGTAVQISTPSYSIPEASFQDSGEYRCQIGSSMPSDPVQLQIHNDWLLLQASRRVLTEGEPLALRCHGWKNKLVYNVVFYRNGKSFQFSSDSEVAILKTNLSHSGIYHCSGTGRHRYTSAGVSITVKELFTTPVLRASVSSPFPEGSLVTLNCETNLLLQRPGLQLHFSFYVGSKILEYRNTSSEYHIARAEREDAGFYWCEVATEDSSVLKRSPELELQVLGPQSSAP
In assay [3], B1 gave a Kd of 0.0048 µM, a koff of 0.0105 s⁻¹ and a kon of 2.18e+06 M⁻¹ s⁻¹.
